Sequences and labels used below:
B1: PCGF1 RAWUL (150–259)/BCOR PUFD dimer (complex, human)
chain 1: LPFSSFDHSKAHYYRYDEQLNLCLERLSSGKDKNKSVLQNKYVRCSVRAEVRHLRRVLCHRLMLNPQHVQLLFDNEVLPDHMTMKQIWLSRWFGKPSPLLLQYSVKEKRR
chain 2: SDVFEFEFSETPLLPCYNIQVSVAQGPRNWLLLSDVLKKLKMSSRIFRCNFPNVEIVTIAEAEFYRQVSASLLFSCSKDLEAFNPESKELLDLVEFTNEIQTLLGSSVEWLHPSD
B2: PCGF1 RAWUL (150–259)/BCORL1 PUFD dimer (complex, human)
chain 1: B1 chain 1
chain 2: DDFMFELSDKPLLPCYNLQVSVSRGPCNWFLFSDVLKRLKLSSRIFQARFPHFEITTMPKAEFYRQVASSQLLTPAERPGGLDDRSPPGSSETVELVRYEPDLLRLLGSEVEFQSCNS
B3: PCGF1 RAWUL (150–259)/BCOR 1448–1748 dimer (complex, human)
chain 1: B1 chain 1
chain 2: PMPPEARRLIVNKNAGETLLQRAARLGYEEVVLYCLENKICDVNHRDNAGYCALHEACARGWLNIVRHLLEYGADVNCSAQDGTRPLHDAVENDHLEIVRLLLSYGADPTLATYSGRTIMKMTHSELMEKFLTDYLNDLQGRNDDDASGTWDFYGSSVCEPDDESGYDVLANPPGPEDQDDDDDAYSDVFEFEFSETPLLPCYNIQVSVAQGPRNWLLLSDVLKKLKMSSRIFRCNFPNVEIVTIAEAEFYRQVSASLLFSCSKDLEAFNPESKELLDLVEFTNEIQTLLGSSVEWLHPSD
B4: PCGF1 RAWUL (150–259)/BCOR 1593–1748 dimer (complex, human)
chain 1: B1 chain 1
chain 2: DASGTWDFYGSSVCEPDDESGYDVLANPPGPEDQDDDDDAYSDVFEFEFSETPLLPCYNIQVSVAQGPRNWLLLSDVLKKLKMSSRIFRCNFPNVEIVTIAEAEFYRQVSASLLFSCSKDLEAFNPESKELLDLVEFTNEIQTLLGSSVEWLHPSD
B5: PCGF1 RAWUL (150–259)/BCOR PUFD Leu1705Gln dimer (complex, human)
chain 1: B1 chain 1
chain 2: B1 chain 2 with L72Q

Residue numbers refer to the chain shown, from its start.

hexahistidine (6His)-tagged KDM2B/SKP1 dimer, sequence (Q8NHM5 1059-1336, chain 1 of 2): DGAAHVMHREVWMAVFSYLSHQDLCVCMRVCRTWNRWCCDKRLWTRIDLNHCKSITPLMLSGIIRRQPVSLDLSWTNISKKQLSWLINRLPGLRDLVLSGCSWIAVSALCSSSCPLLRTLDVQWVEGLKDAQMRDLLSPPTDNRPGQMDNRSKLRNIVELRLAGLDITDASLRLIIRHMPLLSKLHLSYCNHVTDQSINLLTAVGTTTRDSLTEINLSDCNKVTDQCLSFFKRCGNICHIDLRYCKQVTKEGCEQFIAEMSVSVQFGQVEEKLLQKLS
hexahistidine (6His)-tagged KDM2B/SKP1 dimer, sequence (P63208 whole entry, chain 2 of 2): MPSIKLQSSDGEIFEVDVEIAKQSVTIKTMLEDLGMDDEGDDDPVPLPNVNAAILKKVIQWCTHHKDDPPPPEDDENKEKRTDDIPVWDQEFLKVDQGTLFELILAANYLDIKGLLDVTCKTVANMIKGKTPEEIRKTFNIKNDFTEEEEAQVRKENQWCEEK

This test addresses hexahistidine (6His)-tagged KDM2B/SKP1 dimer (human, UniProt Q8NHM5 1059-1336; P63208 1-163). The experiment in a line: BLI. For orientation: In BLI a coated tip is dipped into the sample, and binding shifts an interference pattern.
For orientation: Kd means the constant that tells how readily two partners part at equilibrium. B1: the Kd turned out to be 43 µM.

Take B2: the dissociation constant Kd is around 0.24 µM.

As for B3, the Kd was around 0.031 µM.

On to B4, for which binding was put at a Kd of 0.106 µM.

Take B5: binding was characterised by a dissociation constant (Kd) of 0.032 µM.

For the origin of these results see publication PMC8544800 (Biochemistry, 2020).
